From US12565517B2, “Cyclic peptide having CTLA-4 inhibitory activity and use thereof” (GeneFrontier Corporation, priority 2019, dated 2026) come the findings set out here.

The first test concerns the target T1, CTLA-4 (Homo sapiens, UniProt P16410).
T1 sequence (P16410 36-223): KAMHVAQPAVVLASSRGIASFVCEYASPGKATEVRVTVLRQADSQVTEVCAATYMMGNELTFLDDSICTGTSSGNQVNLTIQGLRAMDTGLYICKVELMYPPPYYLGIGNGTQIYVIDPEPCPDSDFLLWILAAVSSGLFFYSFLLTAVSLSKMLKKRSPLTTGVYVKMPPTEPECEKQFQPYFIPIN
Briefly: ELISA binding of clones after Affinity Maturation with random library (Tables 10, 11). Conditions: CTLA-4 binding ELISA of clones after Affinity Maturation from random (NNS) library; signal/noise ratio; clones of 4th or 5th round. As to the method:
After each round of Affinity Maturation, the cyclic peptide genes were recovered and subcloned into pET-Mal vector (FIG. 2) in the same manner as described above to perform base sequence analysis. For the 94 single colonies analyzed for sequence, E. coli transformants were inoculated into 100 μL of 2×YT medium containing ampicillin (final concentration 50 μg/mL), incubated at 37° C. for 3-5 hours (OD600=0.5-0.8), then added with IPTG (final concentration 0.5 mM) and incubated at 25° C. overnight. 10 μL of E. coli cultured medium was added with 90 μL of PBS and 40 μL of lysis reagent (20 μL BugBuster Protein Extraction Reagent (Novagen), 20 μL Lysozyme solution 2.5 mg/mL) to lyse E. coli cells for 1 hour at room temperature. The cell lysate was added with 40 μL of 12.5% skim milk solution (TBST) and blocked for 1 hour at room temperature. In parallel, antigen protein was immobilized overnight at 4° C. in 384-well plates at 100 ng/20 μL per well, and each well was washed twice with 100 μL/well of TBST, added with 100 μL/well of 5% skim milk solution (TBST) for blocking for 1 hour at room temperature, and washed twice with 100 μL/well of TBST to obtain antigen-immobilized plates. 20 μL/well of blocking-treated E. coli extract was added to the antigen-immobilized plates and gently stirred at room temperature using a plate mixer. After 1 hour, the plates were washed 5 times with 100 μL/well of TBST, 20 μL/well of anti-FLAG M2-HRP conjugate (1:2000 dilution, Sigma) was added and gently stirred on a plate mixer for 1 hour at room temperature. The plates were washed 5 times with 100 μL/well of TBST, and binding of cyclic peptides to the antigen was detected by 20 μL/well of chromogenic substrate (0.4 mg/mL 3,3′,5,5′-Tetramethyl-benzidine, 0.01% hydrogen peroxide). After 15 minutes of reaction at room temperature, the reaction was stopped with 20 μL/well of 2N HCl, and absorbance at 450 nm was measured using a plate reader (infinite F200: TECAN) (Table 5).
Oligo DNAs of a library were synthesized (see below), in which amino acid residues (positions 1, 4, 8, 10, +1 and +2) (corresponding to X1, […], X8, X10, X+1 and X+2) other than those essential or advantageous for CTLA-4 binding (2H, 3P, 5L, 6P, 7I, 9S, 11H, 12F) identified by alanine scanning were randomized (NNS).
Affinity Maturation was performed in the same manner as described above. The amount of biotinylated CTLA-4 immobilized on the magnetic beads was 10 pmol in the 1st round, 2 pmol in the 2nd round, and 1 pmol in the 3nd-5th rounds, respectively. The washing period was 2 hours for the 1st round, 19 hours for the 2nd round, 67 hours for the 3nd round, 140 hours for the 4th round, and 340 hours for the 5th round. Washing frequency was 1 time (2 hours) in the 1st round, 2 times (every 10 hours) in the 2nd round, 6 times (every 10 hours) in the 3rd round, 14 times (every 10 hours) in the 4th round, and 36 times (every 10 hours) in the 5th round.
A general note: An ELISA detects its analyte on a solid surface through an enzyme-linked reagent.
For the substance “C4m#19-5th2w-NNS6-53 (GGCLHPWLPIRSFHFCGA; C4m#19-5th2w-NNS6-53)”, the “ELISA S/N(SA)” value came out at 11.4.
Turning to “C4m#19-5th2w-NNS6-55 (GGCMHPYLPIKSVHFCPL; C4m#19-5th2w-NNS6-55)”, the “ELISA S/N(SA)” value is reported as 28.3.
On to “C4m#19-5th2w-NNS6-61 (GGCCHPWLPIRSVHFCPF; C4m#19-5th2w-NNS6-61)”, for which the “ELISA S/N(SA)” value stood at 4.3.
In the case of “C4m#19-5th2w-NNS6-66 (GGCRHPFLPIFSVHFCPF; C4m#19-5th2w-NNS6-66)”, the “ELISA S/N(SA)” value is listed as 4.4.
As to “C4m#19-5th2w-NNS6-67 (GGCQHPWLPISSWHFCPR; C4m#19-5th2w-NNS6-67)”, the “ELISA S/N(SA)” value is given as 25.5.
For the substance “C4m#19-5th2w-NNS6-68 (GGCLHPWLPIVSCHFCPR; C4m#19-5th2w-NNS6-68)”, the “ELISA S/N(SA)” value is given as 4.6.
In the case of “C4m#19-5th2w-NNS6-70 (GGCRHPFLPIVSWHFCAA; C4m#19-5th2w-NNS6-70)”, the “ELISA S/N(SA)” value was found to be 5.1.
For the substance “C4m#19-5th2w-NNS6-74 (GGCMHPFLPIRSWHFCSR; C4m#19-5th2w-NNS6-74)”, the “ELISA S/N(SA)” value worked out at 7.0.
With “C4m#19-5th2w-NNS6-75 (GGCWHPWLPIKSPHFCAL; C4m#19-5th2w-NNS6-75)”, the “ELISA S/N(SA)” value worked out at 15.3.
Regarding “C4m#19-5th2w-NNS6-79 (GGCRHPFLPIVSRHFCVA; C4m#19-5th2w-NNS6-79)”, the “ELISA S/N(SA)” value was 9.2.
On to “C4m#19-5th2w-NNS6-80 (GGCLHPFLPIVSWHFCPC; C4m#19-5th2w-NNS6-80)”, for which the “ELISA S/N(SA)” value was 3.6.
For “C4m#19-5th2w-NNS6-84 (GGCWHPFLPIVSFHFCPF; C4m#19-5th2w-NNS6-84)”, the “ELISA S/N(SA)” value came out at 6.4.
The same measure, in the same setting: to “C4m#19-5th2w-NNS6-86 (GGCFHPYLPIWSLHFCRS; C4m#19-5th2w-NNS6-86)” belongs 7.7; to “C4m#19-5th2w-NNS6-87 (GGCLHPYLPIFSVHFCAL; C4m#19-5th2w-NNS6-87)”, 4.5.
Take “C4m#19-5th2w-NNS6-90 (GGCRHPFLPIVSFHFCPF; C4m#19-5th2w-NNS6-90)”: the “ELISA S/N(SA)” value was determined as 19.7.
For “C4m#19-5th2w-NNS6-94 (GGCFHPYLPISSVHFCGR; C4m#19-5th2w-NNS6-94)”, the “ELISA S/N(SA)” value worked out at 22.4.
Still for that read-out and setting: in the case of “C4m#19-5th4w-NN6-1 (GGCRHPYLPIFSAHFCRS; C4m#19-5th4w-NN6-1)” it was 16.1.
For “C4m#19-5th4w-NN6-2 (GGCWHPHLPIVSSHFCLF; C4m#19-5th4w-NN6-2)”, the “ELISA S/N(SA)” value is 18.4.
Same read-out and setting: to “C4m#19-5th4w-NN6-4 (GGCRHPYLPIVSRHFCPF; C4m#19-5th4w-NN6-4)” belongs 31.6.
In the case of “C4m#19-5th4w-NN6-5-1 (GGCWHPYLPIQSLHFCPF; C4m#19-5th4w-NN6-5-1)”, the “ELISA S/N(SA)” value turned out to be 14.7.
In the case of “C4m#19-5th4w-NN6-6 (GGCMHPFLPIKSSHFCRK; C4m#19-5th4w-NN6-6)”, the “ELISA S/N(SA)” value is 16.1.
For “C4m#19-5th4w-NN6-7 (GGCRHPFLPIWSWHFCPF; C4m#19-5th4w-NN6-7)”, the “ELISA S/N(SA)” value came out at 23.0.
For the substance “C4m#19-5th4w-NN6-9 (GGCFHPYLPIRSWHFCGR; C4m#19-5th4w-NN6-9)”, the “ELISA S/N(SA)” value was 28.8.
On to “C4m#19-5th4w-NN6-11 (GGCRHPFLPIWSHHFCVC; C4m#19-5th4w-NN6-11)”, for which the “ELISA S/N(SA)” value is 22.1.
“C4m#19-5th4w-NN6-14 (GGCWHPFLPIRSVHFCCR; C4m#19-5th4w-NN6-14)”: the “ELISA S/N(SA)” value is listed as 16.1.
Take “C4m#19-5th4w-NN6-15 (GGCLHPFLPIRSVHFCPF; left off: large carriers; small tags and cut ends)”: the “ELISA S/N(SA)” value was determined as 39.9.
On to “C4m#19-5th4w-NN6-19 (GGCRHPYLPIWSIHFCQK; C4m#19-5th4w-NN6-19)”, for which the “ELISA S/N(SA)” value was 29.7.
In the case of “C4m#19-5th4w-NN6-20 (GGCSHPQLPILSDHFCSA; C4m#19-5th4w-NN6-20)”, the “ELISA S/N(SA)” value was determined as 30.6.
For “C4m#19-5th4w-NN6-21 (GGCWHPWLPILSPHFCPR; C4m#19-5th4w-NN6-21)”, the “ELISA S/N(SA)” value amounted to 37.5.
Consider “C4m#19-5th4w-NN6-23 (GGCRHPHLPIWSWHFCGR; C4m#19-5th4w-NN6-23)”, for which the “ELISA S/N(SA)” value worked out at 30.2.
As to “C4m#19-5th4w-NN6-24 (GGCWHPWLPIYSHHFCPI; C4m#19-5th4w-NN6-24)”, the “ELISA S/N(SA)” value was 27.6.
As to “C4m#19-5th4w-NN6-25 (GGCLHPVLPIRSRHFCPV; C4m#19-5th4w-NN6-25)”, the “ELISA S/N(SA)” value was 38.9.
Take “C4m#19-5th4w-NN6-30 (GGCWHPFLPIMSFHFCPY; C4m#19-5th4w-NN6-30)”: the “ELISA S/N(SA)” value worked out at 16.7.
Same read-out and setting: to “C4m#19-5th4w-NN6-32 (GGCPHPFLPIWSVHFCPF; C4m#19-5th4w-NN6-32)” belongs 27.2.
On the same count and under the same terms, in the case of “C4m#19-5th4w-NN6-34 (GGCFHPFLPIRSDHFCSR; C4m#19-5th4w-NN6-34)” it was 32.2; in that of “C4m#19-5th4w-NN6-36 (GGCRHPYLPIWSAHFCCR; C4m#19-5th4w-NN6-36)”, 5.7.
In the case of “C4m#19-5th4w-NN6-37 (GGCLHPFLPISSWHFCGR; C4m#19-5th4w-NN6-37)”, the “ELISA S/N(SA)” value is given as 22.7.
On to “C4m#19-5th4w-NN6-38 (GGCSHPFLPIFSLHFCPV; C4m#19-5th4w-NN6-38)”, for which the “ELISA S/N(SA)” value turned out to be 16.6.
For the substance “C4m#19-5th4w-NN6-39 (GGCWHPFLPIRSLHFCPR; C4m#19-5th4w-NN6-39)”, the “ELISA S/N(SA)” value worked out at 35.6.
Same read-out and setting: to “C4m#19-5th4w-NN6-40 (GGCFHPFLPIRSHHFCML; C4m#19-5th4w-NN6-40)” belongs 4.0.
In the case of “C4m#19-5th4w-NN6-44 (GGCRHPFLPIVSWHFCGR; C4m#19-5th4w-NN6-44)”, the “ELISA S/N(SA)” value worked out at 30.1.
Turning to “C4m#19-5th4w-NN6-45 (GGCRHPWLPIWSVHFCGV; C4m#19-5th4w-NN6-45)”, the “ELISA S/N(SA)” value was 15.8.
Regarding “C4m#19-5th4w-NN6-46-1 (GGCVHPALPIWSFHFCPS; C4m#19-5th4w-NN6-46-1)”, the “ELISA S/N(SA)” value was 14.2.
Turning to “C4m#19-5th4w-NN6-47 (GGCPHPWLPIFSRHFCPV; C4m#19-5th4w-NN6-47)”, the “ELISA S/N(SA)” value came out at 34.2.
Same read-out and setting: in the case of “C4m#19-5th4w-NN6-49 (GGCMHPYLPIRSFHFCSC; C4m#19-5th4w-NN6-49)” it was 4.0; in that of “C4m#19-5th4w-NN6-50 (GGCKHPVLPIWSWHFCRI; C4m#19-5th4w-NN6-50)”, 28.1.
On to “C4m#19-5th4w-NN6-51 (GGCWHPYLPIVSWHFCSR; C4m#19-5th4w-NN6-51)”, for which the “ELISA S/N(SA)” value came to 22.1.
The same measure, in the same setting: to “C4m#19-5th4w-NN6-52 (GGCLHPFLPIRSVHFCGC; C4m#19-5th4w-NN6-52)” belongs 28.6; to “C4m#19-5th4w-NN6-53 (GGCRHPFLPIYSVHFCAC; C4m#19-5th4w-NN6-53)”, 32.2.
For “C4m#19-5th4w-NN6-54 (GGCLHPGLPIRSLHFCPR; C4m#19-5th4w-NN6-54)”, the “ELISA S/N(SA)” value amounted to 33.3.
As to “C4m#19-5th4w-NN6-55-4 (GGCVHPSLPILSVHFCPR; C4m#19-5th4w-NN6-55-4)”, the “ELISA S/N(SA)” value worked out at 29.5.
Consider “C4m#19-5th4w-NN6-56 (GGCWHPFLPIQSLHFCGV; C4m#19-5th4w-NN6-56)”, for which the “ELISA S/N(SA)” value was determined as 27.1.

The same test, now with this note: S/N ratio of CTLA-4 binding in ELISA; clones from 4th or 5th round of Affinity Maturation from random (NNS) library.
As for “C4m#19-5th2w-NNS6-93 (GGCFHPFLPIQSRHFCCR; C4m#19-5th2w-NNS6-93)”, the “ELISA S/N(SA)” value was 3.4.
